From article doi:10.1101/2020.03.20.000240

Tests used:
Assay in all cases: SPR
[1] = molecular target: full length UmuDAb transcription repressor from Acinetobacter baumannii (Acinetobacter baumannii ATCC 17978)
[2] = molecular target: full-length UmuD, component of DNA polymerase V, from Acinetobacter baumannii (Acinetobacter baumannii ATCC 17978)
[3] = molecular target: UmuDAb C-terminal domain (CTD) (Acinetobacter baumannii ATCC 17978)

Substance: DdrR protein from Acinetobacter baumannii (natural protein)
- Kd [1]: 83.3 nM
- Kd [2]: 294 nM
- Kd [3]: 106 nM
